According to patent US20160369002A1:
pKd: −log10 of the molar value.

Legend:
Assay in all cases: SPR; set-up for the IgG1 comparator not stated
[1] = target: Human CD16a (human) (UniProt P08637)
[2] = target: Human CD16b (human) (UniProt O75015)
[3] = target: Human CD32a (human) (UniProt P12318)
[4] = target: Human CD32b (human) (UniProt P31994)
[5] = target: Human CD64 (human) (UniProt P12314)
Sequence of Human CD64 (human) (P12314 16-288 limits assumed): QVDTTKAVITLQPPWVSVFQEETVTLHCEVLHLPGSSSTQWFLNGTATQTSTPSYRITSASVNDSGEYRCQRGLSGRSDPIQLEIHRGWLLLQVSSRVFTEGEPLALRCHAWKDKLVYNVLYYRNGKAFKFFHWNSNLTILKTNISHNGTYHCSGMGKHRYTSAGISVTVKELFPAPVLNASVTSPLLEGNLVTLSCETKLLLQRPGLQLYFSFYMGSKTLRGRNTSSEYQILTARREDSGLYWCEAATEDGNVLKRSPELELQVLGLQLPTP

Sequence of Human CD32a (human) (P12318 36-218 limits assumed): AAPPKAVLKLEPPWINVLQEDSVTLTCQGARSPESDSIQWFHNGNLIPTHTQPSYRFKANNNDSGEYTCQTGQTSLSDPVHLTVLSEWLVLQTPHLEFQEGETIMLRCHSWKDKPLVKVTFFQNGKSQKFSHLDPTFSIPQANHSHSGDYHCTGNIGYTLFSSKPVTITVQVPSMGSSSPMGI
Sequence of Human CD16a (human) (P08637 17-208 limits assumed): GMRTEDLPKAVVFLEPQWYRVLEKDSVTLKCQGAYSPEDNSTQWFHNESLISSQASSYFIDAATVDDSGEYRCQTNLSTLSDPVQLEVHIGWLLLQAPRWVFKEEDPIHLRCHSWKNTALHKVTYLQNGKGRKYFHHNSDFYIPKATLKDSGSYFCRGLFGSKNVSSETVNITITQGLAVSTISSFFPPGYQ
Sequence of Human CD32b (human) (P31994 46-217 limits assumed): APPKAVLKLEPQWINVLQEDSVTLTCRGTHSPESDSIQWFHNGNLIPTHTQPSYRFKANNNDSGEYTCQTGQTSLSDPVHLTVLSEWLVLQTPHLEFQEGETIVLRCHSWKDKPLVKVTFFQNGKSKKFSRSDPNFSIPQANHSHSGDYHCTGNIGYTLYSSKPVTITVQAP
Sequence of Human CD16b (human) (O75015 17-200 limits assumed): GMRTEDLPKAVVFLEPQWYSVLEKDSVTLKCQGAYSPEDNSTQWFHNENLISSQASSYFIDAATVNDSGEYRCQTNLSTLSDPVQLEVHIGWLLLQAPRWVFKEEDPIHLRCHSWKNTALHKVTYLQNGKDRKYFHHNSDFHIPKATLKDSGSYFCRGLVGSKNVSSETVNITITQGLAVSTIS

pKd [1]: 6.20 | pKd [2]: 5.62 | pKd [3]: 6.42 | pKd [4]: 5.93 | pKd [5]: 9.62
Substance: Full length human IgG1 antibody
